Assays:
[1] = molecular target: T1, Kucore (Mycobacterium tuberculosis, UniProt P9WKD9 1-238); assay: EMSA; 5 mM Mg2+; EMSA: 50 mM Tris-HCl pH 8.0, 50 mM NaCl, 1 mM DTT, 5 mM MgCl2, 4% glycerol, 0.025 mg/ml BSA, 10 nM DNA, 30 C 20 min; FP: 10 mM Tris-HCl pH 8, 10 mM NaCl, 10% glycerol, 1 mM TCEP, 50 nM DNA, 30 C; ternary EMSA: 20 mM Tris-HCl pH 8.0, 5 mM MgCl2, 5% glycerol, 37 C; bridging: 20 mM Tris-HCl pH 7.5, 50 mM KCl, 5 mM EDTA, 1 mM DTT, 5% glycerol, 40 ug/ml BSA, room temperature; settings: protein: recombinant; tags: His (Ni-NTA purified; pMCSG7); chain copies: 2; label: 5' 6-FAM on strand 1; blunt
T1 sequence: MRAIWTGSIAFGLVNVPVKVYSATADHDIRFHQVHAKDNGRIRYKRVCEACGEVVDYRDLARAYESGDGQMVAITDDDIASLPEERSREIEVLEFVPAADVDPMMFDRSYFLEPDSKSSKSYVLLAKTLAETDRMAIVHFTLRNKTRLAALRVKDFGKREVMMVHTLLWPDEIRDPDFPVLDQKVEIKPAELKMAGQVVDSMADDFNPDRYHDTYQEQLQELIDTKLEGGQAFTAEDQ

[2] = molecular target: T2, Kumin (Mycobacterium tuberculosis, UniProt P9WKD9 1-259); assay: as above; settings: protein: recombinant; tags: His (Ni-NTA purified; pMCSG7); chain copies: 2; label: 5' 6-FAM on strand 1; blunt
T2 sequence: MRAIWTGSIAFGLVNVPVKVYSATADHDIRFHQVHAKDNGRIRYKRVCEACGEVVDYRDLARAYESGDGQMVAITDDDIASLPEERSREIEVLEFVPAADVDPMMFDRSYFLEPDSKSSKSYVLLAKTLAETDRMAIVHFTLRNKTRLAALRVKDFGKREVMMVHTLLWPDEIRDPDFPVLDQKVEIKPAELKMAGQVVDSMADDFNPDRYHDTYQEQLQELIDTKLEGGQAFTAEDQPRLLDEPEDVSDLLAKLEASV

[3] = molecular target: KuWT;POL (Mycobacterium …, UniProt P9WKD9;P9WNV3 1-273;1-287, |); assay: EMSA; supershift; EMSA: 50 mM Tris-HCl pH 8.0, 50 mM NaCl, 1 mM DTT, 5 mM MgCl2, 4% glycerol, 0.025 mg/ml BSA, 10 nM DNA, 30 C 20 min; FP: 10 mM Tris-HCl pH 8, 10 mM NaCl, 10% glycerol, 1 mM TCEP, 50 nM DNA, 30 C; ternary EMSA: 20 mM Tris-HCl pH 8.0, 5 mM MgCl2, 5% glycerol, 37 C; bridging: 20 mM Tris-HCl pH 7.5, 50 mM KCl, 5 mM EDTA, 1 mM DTT, 5% glycerol, 40 ug/ml BSA, room temperature; settings: protein: recombinant;recombinant; tags: His (Ni-NTA purified; pMCSG7);His (Ni-NTA purified); chain copies: 2;1; label: 5' 6-FAM on strand 1; blunt
Sequence of KuWT;POL (P9WNV3 1-287, one chain of several): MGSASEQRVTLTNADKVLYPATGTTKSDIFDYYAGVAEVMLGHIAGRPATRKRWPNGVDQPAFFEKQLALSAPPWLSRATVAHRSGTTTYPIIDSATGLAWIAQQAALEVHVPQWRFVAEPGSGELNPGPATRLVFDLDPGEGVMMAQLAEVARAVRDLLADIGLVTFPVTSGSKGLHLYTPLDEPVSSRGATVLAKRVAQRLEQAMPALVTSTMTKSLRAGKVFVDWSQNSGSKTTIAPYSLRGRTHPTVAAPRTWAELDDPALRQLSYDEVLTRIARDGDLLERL

[4] = molecular target: Kucore;LIG (Mycobacterium …, UniProt P9WKD9;P9WNV3 1-238;454-759, |); assay: as above; settings: protein: recombinant;recombinant; tags: His (Ni-NTA purified; pMCSG7);His (Ni-NTA purified); chain copies: 2;1; label: 5' 6-FAM on strand 1; blunt
Sequence of Kucore;LIG (P9WNV3 454-759, one chain of several): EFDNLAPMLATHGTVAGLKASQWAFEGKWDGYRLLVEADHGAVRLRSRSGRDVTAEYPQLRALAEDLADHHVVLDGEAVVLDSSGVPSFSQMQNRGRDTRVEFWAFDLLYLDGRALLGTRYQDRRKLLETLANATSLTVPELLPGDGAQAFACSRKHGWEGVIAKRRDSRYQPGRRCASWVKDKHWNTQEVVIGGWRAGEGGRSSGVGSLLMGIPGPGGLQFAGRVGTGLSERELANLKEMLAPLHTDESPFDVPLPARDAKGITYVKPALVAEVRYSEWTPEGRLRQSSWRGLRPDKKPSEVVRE

[5] = molecular target: Kumin;POL (Mycobacterium …, UniProt P9WKD9;P9WNV3 1-259;1-287, |); assay: as above; settings: protein: recombinant;recombinant; tags: His (Ni-NTA purified; pMCSG7);His (Ni-NTA purified); chain copies: 2;1; label: 5' 6-FAM on strand 1; blunt
Sequence of Kumin;POL (P9WNV3 1-287, one chain of several): as the sequence (P9WNV3 1-287, one chain of several) above

[6] = molecular target: LigD (UniProt P9WNV3 1-759); assay: fluorescence polarization; EMSA: 50 mM Tris-HCl pH 8.0, 50 mM NaCl, 1 mM DTT, 5 mM MgCl2, 4% glycerol, 0.025 mg/ml BSA, 10 nM DNA, 30 C 20 min; FP: 10 mM Tris-HCl pH 8, 10 mM NaCl, 10% glycerol, 1 mM TCEP, 50 nM DNA, 30 C; ternary EMSA: 20 mM Tris-HCl pH 8.0, 5 mM MgCl2, 5% glycerol, 37 C; bridging: 20 mM Tris-HCl pH 7.5, 50 mM KCl, 5 mM EDTA, 1 mM DTT, 5% glycerol, 40 ug/ml BSA, room temperature; settings: protein: recombinant; tags: His (Ni-NTA purified; pMCSG7); label: 5' 6-FAM on strand 1; blunt
Sequence of LigD (P9WNV3 whole entry): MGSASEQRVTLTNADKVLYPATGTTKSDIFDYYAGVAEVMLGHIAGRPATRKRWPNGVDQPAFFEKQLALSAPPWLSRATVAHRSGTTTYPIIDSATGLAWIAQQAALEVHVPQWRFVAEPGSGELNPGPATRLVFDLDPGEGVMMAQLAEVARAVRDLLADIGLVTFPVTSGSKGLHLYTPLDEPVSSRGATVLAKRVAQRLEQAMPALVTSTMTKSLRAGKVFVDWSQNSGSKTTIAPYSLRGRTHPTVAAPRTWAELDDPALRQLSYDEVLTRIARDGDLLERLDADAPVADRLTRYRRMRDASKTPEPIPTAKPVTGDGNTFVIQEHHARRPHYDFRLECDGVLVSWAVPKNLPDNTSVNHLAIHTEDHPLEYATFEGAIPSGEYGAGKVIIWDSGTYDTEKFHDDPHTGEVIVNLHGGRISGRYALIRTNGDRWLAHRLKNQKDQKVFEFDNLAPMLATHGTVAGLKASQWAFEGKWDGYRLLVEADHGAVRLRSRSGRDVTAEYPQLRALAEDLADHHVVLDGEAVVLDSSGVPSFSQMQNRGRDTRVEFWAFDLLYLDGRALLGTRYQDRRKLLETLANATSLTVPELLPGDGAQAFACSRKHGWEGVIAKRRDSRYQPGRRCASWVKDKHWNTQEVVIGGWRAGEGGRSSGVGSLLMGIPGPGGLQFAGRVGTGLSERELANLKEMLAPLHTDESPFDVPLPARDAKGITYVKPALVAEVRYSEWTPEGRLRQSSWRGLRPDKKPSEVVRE

B1: 40 bp dsDNA (dsDNA)
DNA 1: CAGGGTAAGTGTGGAGGTGTAGGGAAGGGAATGTTGTCTG
DNA 2: CAGACAACATTCCCTTCCCTACACCTCCACACTTACCCTG
Kd [1]: 70 ± 10 nM | Kd [2]: 460 ± 80 nM | binding result [3]: binds | binding result [4]: binds | binding result [5]: binds | Kd [6]: 350 ± 30 nM
